According to patent US20070105162A1, “Monovalent avidin and streptavidin compositions” (Massachusetts Institute of Technology, priority 2005, published 2007):

Legend:
[1] = Electrospray ionization mass spectrometry: biotin molecules bound per avidin tetramer; format: binding; settings: spectra with or without biotin
Procedure: Biospin columns (Bio-Rad) are equilibrated by spinning 5 times in 500 μL of 15 mM ammonium acetate pH 7.8 at 1000 g for 2 min. Then 30-50 μL of 30 μM protein in PBS is buffer-exchanged into 15 mM ammonium acetate pH 7.8 using the pre-equilibrated Biospin columns by spinning for 20 s at 1000 g. To ensure that PBS is completely removed, the flow-through is again buffer-exchanged with a second pre-equilibrated column for 20 s. This procedure also removes free biotin when the starting 30 μM avidin forms are incubated with 200 μM biotin. Less than 2 min before introducing into the mass spectrometer, the buffer-exchanged samples are diluted with a solution of 1:1 15 mM ammonium acetate pH 7.8 and 78% acetonitrile, 0.01% trifluoroacetic acid.
An Advion nanospray robot (Advion BioSystems, Ithica, N.Y.) with a back-pressure of 0.45 Psi introduces the samples into the mass spectrometer, an 8.5 Tesla custom-built Electrospray Ionisation-Fourier Transform Mass Spectrometer. To visualize the non-covalent tetramers and non-covalent biotin binding in the high m/z range, the following settings are used: Chirp rate=750 Hz, Amplitude=0.5 V p-p, Tube lens=200 V, Capillary heater 2 V, Quad filter=−20 V, Skimmer=0 V, Capillary offset=34 V, X-fer=−110 V, Leak gas=4.2×10^−5 Torr. The capillary heater is kept low and the Quad filter and Skimmer are kept either high or off to prevent subunit dissociation. The transfer is set to this low value of −110 V in order to visualize the high m/z region.
The masses are calculated manually by first determining the charge state. The final mass is determined by multiplying the observed m/z by the charge and subtracting the mass corresponding to the addition of protons to give that charge. This calculation is repeated for each charge state and the mean and standard deviation reported. The spectra are calibrated with tetrameric avidin, after its monomer mass is determined under denaturing conditions. […]

[2] = Off-rate of 3H-biotin from streptavidin (cold biotin chase); format: binding; settings: 50 μM cold biotin chase, 5 hours at 37° C., ± s.e.m.
Procedure: (Green, N. M. Methods in Enzymol. 184: 51-67, 1990). Dissociation was then initiated by addition of cold biotin at a final concentration of 50 μM and time-points taken over 5 hours at 37° C. 50 μL aliquots were removed and added to 200 μL 0.2M ZnSO4 chilled on ice, followed by 200 μL 0.2 M NaOH. The protein precipitate was pelleted by centrifugation at 16,500 g for 5 min, and ^3H-biotin in the supernatant was measured by liquid scintillation counting. Data were plotted as ln(fraction bound) versus time, and fit to a straight line by linear regression. Dissociation rates were deduced from the slope of the line and the equation: ln(fraction bound)=−koff(t) where fraction bound=(total ^3H-biotin−free ^3H-biotin at timepoint)/(total ^3H-biotin−free ^3H-biotin before cold biotin chase).

[3] = Thermostability assay of streptavidin tetramer (SDS-PAGE); format: physicochemical; settings: 100° C., 3 min in PBS
[4] = Subunit exchange of monovalent avidin over time by SDS-PAGE; format: physicochemical
Procedure: (§1) Methods described in the Avidin Methods section above herein are used for the following production and testing of monovalent avidin. Tests are performed to determine whether monovalent avidin will rearrange its subunit composition over time. […] Wild-type avidin and A1D3 are heated in PBS at various temperatures and tetramer disassembly is determined by SDS-PAGE.

[5] = Thermostability assay of avidin tetramer (SDS-PAGE); format: physicochemical; settings: 100° C., PBS
Procedure: 2.3 μM wild-type avidin or chimeric avidin in PBS is heated at the indicated temperature for 3 min in a PTC-200 PCR machine (MJ Research; Waltham, Mass.) and then immediately placed on ice (Bayer, E. A. et al. Electrophoresis 17: 1319-1324, 1996). Samples are mixed with 6×SDS-PAGE loading buffer and loaded onto a 16% polyacrylamide gel.
as §1

Substance: D4: Streptavidin tetramer with 4 dead subunits (D: N23A, S27D, S45A, SEQ ID NO:3) [Tetramer D4]
- biotin binding per avidin tetramer by mass spectrometry (in words) [1]: No biotin binding

Substance: A1D3: Monovalent streptavidin tetramer: one His6-tagged wild-type (A) subunit and three dead (D) subunits [Tetramer A1D3]
- off-rate from biotin [2]: 6.14±0.19×10^−5 s^−1
- fraction remaining tetrameric on heating [3]: significant fraction
- biotin binding per avidin tetramer by mass spectrometry (in words) [1]: single biotin
- A1D3 avidin rearranged into D4 ([4]; 37° C. for one day or room temperature for one week): small percentage
- Formation of A2D2 from subunit exchange ([4]; 37° C. one day or room temperature one week): not detected
- fraction remaining tetrameric on heating [5]: significant fraction
